From patent US20120172293A1 (Takeda / Millennium, published 2012) come the findings set out here.

To fix the notation:
B1: Benzoyl-[Cha27,28,36, Aib31]-PYY(25-36) (peptide)
peptide: Bz-RH[Cha][Cha]NL[Aib]TRQR[Cha]-NH2
SMILES: CC(C)C[C@H](NC(=O)[C@H](CC(N)=O)NC(=O)[C@H](CC1CCCCC1)NC(=O)[C@H](CC1CCCCC1)NC(=O)[C@H](Cc1c[nH]cn1)NC(=O)[C@H](CCCNC(=N)N)NC(=O)c1ccccc1)C(=O)NC(C)(C)C(=O)N[C@H](C(=O)N[C@@H](CCCNC(=N)N)C(=O)N[C@@H](CCC(N)=O)C(=O)N[C@@H](CCCNC(=N)N)C(=O)N[C@@H](CC1CCCCC1)C(N)=O)[C@@H](C)O
B2: Benzoyl-[Cha27,36, Ile28, Pya(4)31]-PYY(25-36) (peptide)
peptide: Bz-RH[Cha]INL[4Pal]TRQR[Cha]-NH2
SMILES: CC[C@H](C)[C@H](NC(=O)[C@H](CC1CCCCC1)NC(=O)[C@H](Cc1c[nH]cn1)NC(=O)[C@H](CCCNC(=N)N)NC(=O)c1ccccc1)C(=O)N[C@@H](CC(N)=O)C(=O)N[C@@H](CC(C)C)C(=O)N[C@@H](Cc1ccncc1)C(=O)N[C@H](C(=O)N[C@@H](CCCNC(=N)N)C(=O)N[C@@H](CCC(N)=O)C(=O)N[C@@H](CCCNC(=N)N)C(=O)N[C@@H](CC1CCCCC1)C(N)=O)[C@@H](C)O
B3: Ac-[Acp22, Glu23, D-Pro24, Cha27,28,36, Lys30, Aib31]-PYY(22-36) (peptide)
peptide: Ac-[Ahx]E[dP]RH[Cha][Cha]NK[Aib]TRQR[Cha]-NH2
SMILES: CC(=O)NCCCCCC(=O)N[C@@H](CCC(=O)O)C(=O)N1CCC[C@@H]1C(=O)N[C@@H](CCCNC(=N)N)C(=O)N[C@@H](Cc1c[nH]cn1)C(=O)N[C@@H](CC1CCCCC1)C(=O)N[C@@H](CC1CCCCC1)C(=O)N[C@@H](CC(N)=O)C(=O)N[C@@H](CCCCN)C(=O)NC(C)(C)C(=O)N[C@H](C(=O)N[C@@H](CCCNC(=N)N)C(=O)N[C@@H](CCC(N)=O)C(=O)N[C@@H](CCCNC(=N)N)C(=O)N[C@@H](CC1CCCCC1)C(N)=O)[C@@H](C)O
B4: Piperidinocarbonyl-[Glu23, D-Pro24, Pya(4)26, Cha27,36, Aib28,31, Lys30]-PYY(23-36) (peptide)
peptide: Piperidinocarbonyl-E[dP]R[4Pal][Cha][Aib]NK[Aib]TRQR[Cha]-NH2
B5: Benzoyl-[Cha27,36, Ile28, Arg(Me)31]-PYY(25-36) (peptide)
peptide: Bz-RH[Cha]INL[Arg(Me)]TRQR[Cha]-NH2
SMILES: CC[C@H](C)[C@H](NC(=O)[C@H](CC1CCCCC1)NC(=O)[C@H](Cc1c[nH]cn1)NC(=O)[C@H](CCCNC(=N)N)NC(=O)c1ccccc1)C(=O)N[C@@H](CC(N)=O)C(=O)N[C@@H](CC(C)C)C(=O)N[C@@H](CCCNC(=N)NC)C(=O)N[C@H](C(=O)N[C@@H](CCCNC(=N)N)C(=O)N[C@@H](CCC(N)=O)C(=O)N[C@@H](CCCNC(=N)N)C(=O)N[C@@H](CC1CCCCC1)C(N)=O)[C@@H](C)O
B6: Ac-[D-Pro24, D-Iva26, Cha27,28,36, Aib31]-PYY(23-36) (peptide)
peptide: Ac-S[dP]R[dIva][Cha][Cha]NL[Aib]TRQR[Cha]-NH2
SMILES: CC[C@@](C)(NC(=O)[C@H](CCCNC(=N)N)NC(=O)[C@H]1CCCN1C(=O)[C@H](CO)NC(C)=O)C(=O)N[C@@H](CC1CCCCC1)C(=O)N[C@@H](CC1CCCCC1)C(=O)N[C@@H](CC(N)=O)C(=O)N[C@@H](CC(C)C)C(=O)NC(C)(C)C(=O)N[C@H](C(=O)N[C@@H](CCCNC(=N)N)C(=O)N[C@@H](CCC(N)=O)C(=O)N[C@@H](CCCNC(=N)N)C(=O)N[C@@H](CC1CCCCC1)C(N)=O)[C@@H](C)O
B7: Benzoyl-[Cha27,36, Ile28, Dap31]-PYY(25-36) (peptide)
peptide: Bz-RH[Cha]INL[Dap]TRQR[Cha]-NH2
SMILES: CC[C@H](C)[C@H](NC(=O)[C@H](CC1CCCCC1)NC(=O)[C@H](Cc1c[nH]cn1)NC(=O)[C@H](CCCNC(=N)N)NC(=O)c1ccccc1)C(=O)N[C@@H](CC(N)=O)C(=O)N[C@@H](CC(C)C)C(=O)N[C@@H](CN)C(=O)N[C@H](C(=O)N[C@@H](CCCNC(=N)N)C(=O)N[C@@H](CCC(N)=O)C(=O)N[C@@H](CCCNC(=N)N)C(=O)N[C@@H](CC1CCCCC1)C(N)=O)[C@@H](C)O
B8: Benzoyl-[Cha27,36, Nal(1)28, Aib31]-PYY(25-36) (peptide)
peptide: Bz-RH[Cha][1Nal]NL[Aib]TRQR[Cha]-NH2
SMILES: CC(C)C[C@H](NC(=O)[C@H](CC(N)=O)NC(=O)[C@H](Cc1cccc2ccccc12)NC(=O)[C@H](CC1CCCCC1)NC(=O)[C@H](Cc1c[nH]cn1)NC(=O)[C@H](CCCNC(=N)N)NC(=O)c1ccccc1)C(=O)NC(C)(C)C(=O)N[C@H](C(=O)N[C@@H](CCCNC(=N)N)C(=O)N[C@@H](CCC(N)=O)C(=O)N[C@@H](CCCNC(=N)N)C(=O)N[C@@H](CC1CCCCC1)C(N)=O)[C@@H](C)O
B9: Ac-[D-Pro24, D-Iva25, Cha27,28,36, Aib31]-PYY(23-36) (peptide)
peptide: Ac-S[dP][dIva]H[Cha][Cha]NL[Aib]TRQR[Cha]-NH2
SMILES: CC[C@@](C)(NC(=O)[C@H]1CCCN1C(=O)[C@H](CO)NC(C)=O)C(=O)N[C@@H](Cc1c[nH]cn1)C(=O)N[C@@H](CC1CCCCC1)C(=O)N[C@@H](CC1CCCCC1)C(=O)N[C@@H](CC(N)=O)C(=O)N[C@@H](CC(C)C)C(=O)NC(C)(C)C(=O)N[C@H](C(=O)N[C@@H](CCCNC(=N)N)C(=O)N[C@@H](CCC(N)=O)C(=O)N[C@@H](CCCNC(=N)N)C(=O)N[C@@H](CC1CCCCC1)C(N)=O)[C@@H](C)O
B10: Ac-[Glu23, D-Pro24, Nle25, Pya(4)26, Cha27,28,36, Lys30, Aib31]-PYY(23-36) (peptide)
peptide: Ac-E[dP][Nle][4Pal][Cha][Cha]NK[Aib]TRQR[Cha]-NH2
SMILES: CCCC[C@H](NC(=O)[C@H]1CCCN1C(=O)[C@H](CCC(=O)O)NC(C)=O)C(=O)N[C@@H](Cc1ccncc1)C(=O)N[C@@H](CC1CCCCC1)C(=O)N[C@@H](CC1CCCCC1)C(=O)N[C@@H](CC(N)=O)C(=O)N[C@@H](CCCCN)C(=O)NC(C)(C)C(=O)N[C@H](C(=O)N[C@@H](CCCNC(=N)N)C(=O)N[C@@H](CCC(N)=O)C(=O)N[C@@H](CCCNC(=N)N)C(=O)N[C@@H](CC1CCCCC1)C(N)=O)[C@@H](C)O
B11: Ac-[D-Pro24, Iva26, Cha27,28,36, Aib31]-PYY(23-36) (peptide)
peptide: Ac-S[dP]R[Iva][Cha][Cha]NL[Aib]TRQR[Cha]-NH2
SMILES: CC[C@](C)(NC(=O)[C@H](CCCNC(=N)N)NC(=O)[C@H]1CCCN1C(=O)[C@H](CO)NC(C)=O)C(=O)N[C@@H](CC1CCCCC1)C(=O)N[C@@H](CC1CCCCC1)C(=O)N[C@@H](CC(N)=O)C(=O)N[C@@H](CC(C)C)C(=O)NC(C)(C)C(=O)N[C@H](C(=O)N[C@@H](CCCNC(=N)N)C(=O)N[C@@H](CCC(N)=O)C(=O)N[C@@H](CCCNC(=N)N)C(=O)N[C@@H](CC1CCCCC1)C(N)=O)[C@@H](C)O
B12: Ac-[D-Pro24, Cha27,28,36, D-Iva29, Aib31]-PYY(23-36) (peptide)
peptide: Ac-S[dP]RH[Cha][Cha][dIva]L[Aib]TRQR[Cha]-NH2
SMILES: CC[C@@](C)(NC(=O)[C@H](CC1CCCCC1)NC(=O)[C@H](CC1CCCCC1)NC(=O)[C@H](Cc1c[nH]cn1)NC(=O)[C@H](CCCNC(=N)N)NC(=O)[C@H]1CCCN1C(=O)[C@H](CO)NC(C)=O)C(=O)N[C@@H](CC(C)C)C(=O)NC(C)(C)C(=O)N[C@H](C(=O)N[C@@H](CCCNC(=N)N)C(=O)N[C@@H](CCC(N)=O)C(=O)N[C@@H](CCCNC(=N)N)C(=O)N[C@@H](CC1CCCCC1)C(N)=O)[C@@H](C)O
B13: Ac-[D-Pro24, Iva25, Cha27,28,36, Aib31]-PYY(23-36) (peptide)
peptide: Ac-S[dP][Iva]H[Cha][Cha]NL[Aib]TRQR[Cha]-NH2
SMILES: CC[C@](C)(NC(=O)[C@H]1CCCN1C(=O)[C@H](CO)NC(C)=O)C(=O)N[C@@H](Cc1c[nH]cn1)C(=O)N[C@@H](CC1CCCCC1)C(=O)N[C@@H](CC1CCCCC1)C(=O)N[C@@H](CC(N)=O)C(=O)N[C@@H](CC(C)C)C(=O)NC(C)(C)C(=O)N[C@H](C(=O)N[C@@H](CCCNC(=N)N)C(=O)N[C@@H](CCC(N)=O)C(=O)N[C@@H](CCCNC(=N)N)C(=O)N[C@@H](CC1CCCCC1)C(N)=O)[C@@H](C)O
B14: Benzoyl-[Cha27,36, Ile28, Phe(4NH2)31]-PYY(25-36) (peptide)
peptide: Bz-RH[Cha]INL[Phe(4-NH2)]TRQR[Cha]-NH2
SMILES: CC[C@H](C)[C@H](NC(=O)[C@H](CC1CCCCC1)NC(=O)[C@H](Cc1c[nH]cn1)NC(=O)[C@H](CCCNC(=N)N)NC(=O)c1ccccc1)C(=O)N[C@@H](CC(N)=O)C(=O)N[C@@H](CC(C)C)C(=O)N[C@@H](Cc1ccc(N)cc1)C(=O)N[C@H](C(=O)N[C@@H](CCCNC(=N)N)C(=O)N[C@@H](CCC(N)=O)C(=O)N[C@@H](CCCNC(=N)N)C(=O)N[C@@H](CC1CCCCC1)C(N)=O)[C@@H](C)O
B15: 3-Carboxypropionyl-[Acp22, D-Pro24, Cha27,36, Leu(Me)28, Lys30, Aib31]-PYY(22-36) (peptide)
peptide: Suc-[Ahx]S[dP]RH[Cha][tBuAla]NK[Aib]TRQR[Cha]-NH2
SMILES: C[C@@H](O)[C@H](NC(=O)C(C)(C)NC(=O)[C@H](CCCCN)NC(=O)[C@H](CC(N)=O)NC(=O)[C@H](CC(C)(C)C)NC(=O)[C@H](CC1CCCCC1)NC(=O)[C@H](Cc1c[nH]cn1)NC(=O)[C@H](CCCNC(=N)N)NC(=O)[C@H]1CCCN1C(=O)[C@H](CO)NC(=O)CCCCCNC(=O)CCC(=O)O)C(=O)N[C@@H](CCCNC(=N)N)C(=O)N[C@@H](CCC(N)=O)C(=O)N[C@@H](CCCNC(=N)N)C(=O)N[C@@H](CC1CCCCC1)C(N)=O

Starred links: 1 amine or outer side, 2 acyl side, 3 side chain; linkers in the order of their positions; H or OH if unused. Non-standard residues stand in square brackets, D forms with d. *: point of attachment. Phe(4-NH2) = Nc1ccc(C[C@H](N)C(=O)O)cc1; 1Nal = N[C@@H](Cc1cccc2ccccc12)C(=O)O; Arg(Me) = CNC(=N)NCCC[C@H](N)C(=O)O; tBuAla = CC(C)(C)C[C@H](N)C(=O)O; 4Pal = N[C@@H](Cc1ccncc1)C(=O)O; Cha = N[C@@H](CC1CCCCC1)C(=O)O; Suc = O=C(CCC(=O)[*:2])[*:1]; dIva = CC[C@@](C)(N)C(=O)O; Iva = CC[C@](C)(N)C(=O)O; Nle = CCCC[C@H](N)C(=O)O; Dap = NC[C@H](N)C(=O)O; Aib = CC(C)(N)C(=O)O; Bz = O=C(c1ccccc1)*; Ahx = NCCCCCC(=O)O

Chain of human Y2 receptor (human) (P49146 whole entry): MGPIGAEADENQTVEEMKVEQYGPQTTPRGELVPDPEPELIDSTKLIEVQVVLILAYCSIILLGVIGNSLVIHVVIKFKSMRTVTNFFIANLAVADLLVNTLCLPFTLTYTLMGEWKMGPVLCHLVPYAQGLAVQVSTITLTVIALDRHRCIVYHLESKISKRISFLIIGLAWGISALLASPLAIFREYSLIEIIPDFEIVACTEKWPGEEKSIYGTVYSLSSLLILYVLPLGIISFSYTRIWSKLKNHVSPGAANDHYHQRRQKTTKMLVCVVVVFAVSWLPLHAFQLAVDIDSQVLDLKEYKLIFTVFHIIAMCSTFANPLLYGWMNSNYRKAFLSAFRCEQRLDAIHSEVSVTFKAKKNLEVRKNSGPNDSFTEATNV

The first test concerns the target human Y2 receptor (human) (UniProt P49146). Description: cell-based or functional assay.
Turning to B1, the GBA EC50 Ratio (vs PYY(3-36)), [35S]GTPγS amounted to 18.
As for B2, the GBA EC50 Ratio (vs PYY(3-36)), [35S]GTPγS worked out at 8.5.
Still for that read-out and setting: next, B3: 1.1; B4: 2.4; B5: 15.
Same read-out and setting: next, B6: 13; B7: 28; B8: 25.
Turning to B9, the GBA EC50 Ratio (vs PYY(3-36)), [35S]GTPγS was 11.
Still for that read-out and setting: in the case of B10 it was 1.3; in that of B11, 4.2; in that of B12, 37.
Regarding B13, the GBA EC50 Ratio (vs PYY(3-36)), [35S]GTPγS was 3.7.
For the molecule B14, the GBA EC50 Ratio (vs PYY(3-36)), [35S]GTPγS is 5.4.
Turning to B15, the GBA EC50 Ratio (vs PYY(3-36)), [35S]GTPγS came to 1.2.

Another test has the same target. Description: RBA: [125I]-PYY displacement, hY2R/CHO membranes.
Turning to B1, the IC50 Ratio (vs PYY(3-36)) came out at 28.
As to B2, the IC50 Ratio (vs PYY(3-36)) was determined as 7.6.
On the same count and under the same terms, in the case of B3 it was 1.7.
Still for that read-out and setting: next, B4: 3.3; B5: 18.
Same read-out and setting: in the case of B6 it was 19.
Regarding B7, the IC50 Ratio (vs PYY(3-36)) is 37.
Still for that read-out and setting: in the case of B8 it was 34.
The same measure, in the same setting: in the case of B9 it was 14.
Consider B10, for which the IC50 Ratio (vs PYY(3-36)) is 2.3.
The same measure, in the same setting: next, B11: 5.2.
Same read-out and setting: next, B12: 71.
Take B13: the IC50 Ratio (vs PYY(3-36)) amounted to 4.5.
Same read-out and setting: next, B14: 5; B15: 1.7.
